Data on 61 sequences can be found in the supplement of paper PMC7877785.

± gives the uncertainty stated by the source.

This data set can be described thus: self-splicing fitness, log relative to wild type (ln ratio); higher = more splicing; Tetrahymena group I intron in knt gene, E. coli kanamycin selection, DiMSum; sequences stand for … in CUCUCU…GGAGGGAAAAGUUAUCAGGCAUGCACCUGGUAGCUAGUCUUUAAACCAAUAGAUUGCAUCGGUUUAAAAGGCAAGACCGUCAAAUUGCGGGAAAGGGGUCAACAGCCGUUCAGUACCAAGUCUCAGGGGAAACUUUGAGAUGGCCUUGCAAAGGGUAUGGUAAUAAGCUGACGGACAUGGUCCUAACCACGCAGCCAAGUCCUAAGUCAACAGAUCUUCUGUUGAUAUGGAUGCAGUUCACAGACUAAAUGUCGGUCGGGGAAGAUGUAUUCUUCUCAUAAGAUAUAGUCGGACCUCUCCUUAAUGGGAGCUAGCGGAUGAAGUGAUGCAACACUGGAGCCGCUGGGAACUAAUUUGUAUGCGAAAGUAUAUUGAUUAGUUUUGGAGUACUCGUGGUCG
Summed up:
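The eight P1ex-region nucleotides of an intron in the knt kanamycin-resistance gene on pET-22b(+) were all randomised and the library put into E. coli BL21(DE3). Six replicate transformations were grown overnight at 37°C or 30°C on LB agar with or without 25 μg/mL kanamycin, together with 100 μg/mL carbenicillin, 50 μM IPTG and 0.2% rhamnose. Colonies were pooled and amplicon-sequenced on an Illumina HiSeq 2500. Fitness from DiMSum is the error-weighted combination of wild-type-normalised replicate fold changes, kanamycin over none.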

Take AGUCAGCAAUAUUACGACAU: the “self-splicing fitness (ln)” value (30 °C) stood at 0.0908 ± 0.012 and the “self-splicing fitness (ln)” value (37 °C) was -0.0465 ± 0.032. The matching figures for GCACAGCAAUAUUACGUCCA: -0.954 ± 0.12 and -0.96 ± 0.11. Consider GGAAAGCAAUAUUACGUAGC, for which the “self-splicing fitness (ln)” value reads like this: (30 °C) -2.63 ± 0.22; (37 °C) -2.34 ± 0.23. ACCUAGCAAUAUUACGUGGG: the “self-splicing fitness (ln)” value was -3.54 ± 0.17 (30 °C) and -3.4 ± 0.24 (37 °C). With CCUCAGCAAUAUUACGCCCC, the “self-splicing fitness (ln)” value (37 °C) is -1.39 ± 0.35. Regarding UGCGAGCAAUAUUACGGUUG, the “self-splicing fitness (ln)” value runs as follows: (30 °C) -1.51 ± 0.16; (37 °C) -1.82 ± 0.26. On to UGGCAGCAAUAUUACGAUCU, for which the “self-splicing fitness (ln)” value was -0.344 ± 0.11 (30 °C) and -0.112 ± 0.11 (37 °C). Take GUGAAGCAAUAUUACGCCAC: the “self-splicing fitness (ln)” value (30 °C) is -2.66 ± 0.5. Take CACUAGCAAUAUUACGCACA: the “self-splicing fitness (ln)” value by setting is: (30 °C) -0.953 ± 0.094; (37 °C) -0.695 ± 0.08. The matching figures for GUCAAGCAAUAUUACGUUAG: -4.36 ± 0.24 and -3.3 ± 0.23.

As to UUCGAGCAAUAUUACGGGAG, the “self-splicing fitness (ln)” value (30 °C) is -3.53 ± 0.2 and the “self-splicing fitness (ln)” value (37 °C) was -2.84 ± 0.22. In the case of CCUUAGCAAUAUUACGGGAG, the “self-splicing fitness (ln)” value (30 °C) is -3.19 ± 0.23 and the “self-splicing fitness (ln)” value (37 °C) is -3.67 ± 0.39. The like results for GGUGAGCAAUAUUACGGCAC were, in that order, -1.85 ± 0.17 and -0.155 ± 0.18. The like results for UUCUAGCAAUAUUACGCUUG were, in that order, -4.24 ± 0.33 and -2.67 ± 0.22. The matching figures for AAUAAGCAAUAUUACGGCGC: 0.251 ± 0.12 and -0.478 ± 0.13.

As to ACCAAGCAAUAUUACGUGGC, the “self-splicing fitness (ln)” value reads like this: (30 °C) -3.68 ± 0.18; (37 °C) -2.94 ± 0.18. In the case of CCAAAGCAAUAUUACGGUGC, the “self-splicing fitness (ln)” value is -4.01 ± 0.16 (30 °C) and -2.19 ± 0.13 (37 °C). The like results for AGGUAGCAAUAUUACGCGCG were, in that order, -0.525 ± 0.016 and -0.215 ± 0.035. The like results for CUCUAGCAAUAUUACGGAUG were, in that order, -1.32 ± 0.092 and -0.418 ± 0.13.

On to CAUGAGCAAUAUUACGCACU, for which, under “37 °C”, the “self-splicing fitness (ln)” value is -1.96 ± 0.24. Turning to GUGAAGCAAUAUUACGAAGG, the “self-splicing fitness (ln)” value runs as follows: (30 °C) -1.91 ± 0.14; (37 °C) -0.854 ± 0.17.

With ACCGAGCAAUAUUACGUAUA, the “self-splicing fitness (ln)” value by setting is: (30 °C) -3.96 ± 0.35; (37 °C) -2.6 ± 0.27.

Take GUUCAGCAAUAUUACGCACG: the “self-splicing fitness (ln)” value was -0.107 ± 0.22 (30 °C) and -0.682 ± 0.31 (37 °C). The matching figures for CAUGAGCAAUAUUACGGGUA: -2.86 ± 0.28 and -2.23 ± 0.28.

With UCUAAGCAAUAUUACGUAUA, the “self-splicing fitness (ln)” value (30 °C) is -2.55 ± 0.17 and the “self-splicing fitness (ln)” value (37 °C) is -1.45 ± 0.12. On to GGGUAGCAAUAUUACGCGCG, for which the “self-splicing fitness (ln)” value reads like this: (30 °C) -0.435 ± 0.11; (37 °C) 0.558 ± 0.15. The like results for UCAUAGCAAUAUUACGCGUA were, in that order, -1.44 ± 0.09 and -0.884 ± 0.08.

Consider AGGGAGCAAUAUUACGAGCG, for which the “self-splicing fitness (ln)” value by setting is: (30 °C) -2.94 ± 0.47; (37 °C) -0.874 ± 0.43. As for AGAGAGCAAUAUUACGGAGU, the “self-splicing fitness (ln)” value was -3.87 ± 0.4 (30 °C) and -3.3 ± 0.47 (37 °C). Consider CGUAAGCAAUAUUACGCGAU, for which the “self-splicing fitness (ln)” value reads like this: (30 °C) -3.53 ± 0.2; (37 °C) -1.98 ± 0.18. The matching figures for GGCUAGCAAUAUUACGUCAU: -1.5 ± 0.082 and -0.278 ± 0.086. The like results for CUAAAGCAAUAUUACGGUGG were, in that order, -0.649 ± 0.064 and -0.0443 ± 0.08.

For ACAAAGCAAUAUUACGUUGC, the “self-splicing fitness (ln)” value is, setting by setting: (30 °C) -3.26 ± 0.12; (37 °C) -2.57 ± 0.16. The matching figures for UUUAAGCAAUAUUACGCUCG: -0.577 ± 0.095 and 0.0454 ± 0.11.

For CAAUAGCAAUAUUACGAUUU, the “self-splicing fitness (ln)” value (30 °C) is -2.3 ± 0.091 and the “self-splicing fitness (ln)” value (37 °C) was -0.775 ± 0.084.

Regarding GACUAGCAAUAUUACGUUUC, the “self-splicing fitness (ln)” value is -2.3 ± 0.12 (30 °C) and -2.84 ± 0.18 (37 °C). For UAUAAGCAAUAUUACGCCGA, the “self-splicing fitness (ln)” value runs as follows: (30 °C) -1.53 ± 0.14; (37 °C) 0.235 ± 0.14.

With UUCUAGCAAUAUUACGAGAA, the “self-splicing fitness (ln)” value is -2.54 ± 0.29 (30 °C) and -2.11 ± 0.29 (37 °C). The like results for CCAAAGCAAUAUUACGUCCG were, in that order, -0.225 ± 0.11 and -0.354 ± 0.14. The matching figures for GCGAAGCAAUAUUACGCGCG: -2.34 ± 0.17 and -1.28 ± 0.22.

Consider GAUGAGCAAUAUUACGCUGC, for which the “self-splicing fitness (ln)” value (37 °C) was -1.25 ± 0.48. Regarding ACGCAGCAAUAUUACGUUGA, the “self-splicing fitness (ln)” value by setting is: (30 °C) -1.43 ± 0.11; (37 °C) -1.73 ± 0.11.

UCAUAGCAAUAUUACGUCCG: the “self-splicing fitness (ln)” value is 0.46 ± 0.24 (30 °C) and -1.67 ± 0.29 (37 °C).

As for AGUUAGCAAUAUUACGGAUC, the “self-splicing fitness (ln)” value is, setting by setting: (30 °C) -1.01 ± 0.13; (37 °C) -1.09 ± 0.18. The matching figures for GAUGAGCAAUAUUACGUCCC: -2.06 ± 0.43 and -1.04 ± 0.44. For CGGCAGCAAUAUUACGCAUC, the “self-splicing fitness (ln)” value was -3.25 ± 0.26 (30 °C) and -2.39 ± 0.41 (37 °C). In the case of UAAGAGCAAUAUUACGGUGG, the “self-splicing fitness (ln)” value was -4.17 ± 0.33 (30 °C) and -2.36 ± 0.26 (37 °C).

As for AGCCAGCAAUAUUACGCAAC, the “self-splicing fitness (ln)” value reads like this: (30 °C) -4.16 ± 0.32; (37 °C) -1.4 ± 0.23. In the case of ACGUAGCAAUAUUACGCACC, the “self-splicing fitness (ln)” value runs as follows: (30 °C) -1.18 ± 0.11; (37 °C) -0.224 ± 0.16. The like results for AUAAAGCAAUAUUACGUAUG were, in that order, -2.13 ± 0.097 and -1.34 ± 0.12. The like results for UAAGAGCAAUAUUACGACUA were, in that order, -0.436 ± 0.11 and 0.314 ± 0.11.

With AUUUAGCAAUAUUACGGGCA, the “self-splicing fitness (ln)” value runs as follows: (30 °C) -1.56 ± 0.19; (37 °C) -0.452 ± 0.26.

In the case of GUAAAGCAAUAUUACGGUUA, the “self-splicing fitness (ln)” value is, setting by setting: (30 °C) -0.077 ± 0.058; (37 °C) 0.569 ± 0.086. In the case of UUUCAGCAAUAUUACGUACA, the “self-splicing fitness (ln)” value runs as follows: (30 °C) -0.836 ± 0.11; (37 °C) -0.465 ± 0.11. The like results for CUAUAGCAAUAUUACGACCG were, in that order, 0.239 ± 0.18 and 0.785 ± 0.27.

For AGUGAGCAAUAUUACGCACG, the “self-splicing fitness (ln)” value is -1.58 ± 0.18 (30 °C) and -0.941 ± 0.17 (37 °C). On to UGGAAGCAAUAUUACGAAGA, for which the “self-splicing fitness (ln)” value is, setting by setting: (30 °C) -2.23 ± 0.28; (37 °C) -1.01 ± 0.28. As to AAAUAGCAAUAUUACGCUUC, the “self-splicing fitness (ln)” value runs as follows: (30 °C) -3.19 ± 0.3; (37 °C) -2.99 ± 0.3.

CGAUAGCAAUAUUACGCGAU: the “self-splicing fitness (ln)” value runs as follows: (30 °C) -3.09 ± 0.18; (37 °C) -2.6 ± 0.29. The like results for GCCCAGCAAUAUUACGGACU were, in that order, -2.51 ± 0.16 and -0.873 ± 0.21. The like results for CAUGAGCAAUAUUACGCGAA were, in that order, -3.03 ± 0.17 and -1.57 ± 0.15.
